Laboratory results published in publication PMC3542820.

Molecular target: T1, Rfa2-His from WT cells (HT41), dephosphorylated G1 form (Candida albicans, UniProt Q59Z33 1-272)
T1 sequence: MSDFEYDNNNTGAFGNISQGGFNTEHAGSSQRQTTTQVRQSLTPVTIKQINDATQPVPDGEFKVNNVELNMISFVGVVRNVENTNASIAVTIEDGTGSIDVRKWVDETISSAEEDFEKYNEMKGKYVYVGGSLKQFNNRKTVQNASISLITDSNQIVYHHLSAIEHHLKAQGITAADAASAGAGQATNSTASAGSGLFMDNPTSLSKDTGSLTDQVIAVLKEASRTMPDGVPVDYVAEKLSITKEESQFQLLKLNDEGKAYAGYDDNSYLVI
Assay: EMSA

B1: FITC-dsDNA 30 bp (dsDNA)
DNA 1: CCCCTCTCCTTCTTGGCCTCTTCCTTCCCC
DNA 2: GGGGAAGGAAGAGGCCAAGAAGGAGAGGGG
binding result: binds
